The values that follow come from PMC11063129.

For this series, the target named is T1, Twinkle (mitochondrial DNA helicase) (human, UniProt Q96RR1 43-684, del1-42).
T1 sequence: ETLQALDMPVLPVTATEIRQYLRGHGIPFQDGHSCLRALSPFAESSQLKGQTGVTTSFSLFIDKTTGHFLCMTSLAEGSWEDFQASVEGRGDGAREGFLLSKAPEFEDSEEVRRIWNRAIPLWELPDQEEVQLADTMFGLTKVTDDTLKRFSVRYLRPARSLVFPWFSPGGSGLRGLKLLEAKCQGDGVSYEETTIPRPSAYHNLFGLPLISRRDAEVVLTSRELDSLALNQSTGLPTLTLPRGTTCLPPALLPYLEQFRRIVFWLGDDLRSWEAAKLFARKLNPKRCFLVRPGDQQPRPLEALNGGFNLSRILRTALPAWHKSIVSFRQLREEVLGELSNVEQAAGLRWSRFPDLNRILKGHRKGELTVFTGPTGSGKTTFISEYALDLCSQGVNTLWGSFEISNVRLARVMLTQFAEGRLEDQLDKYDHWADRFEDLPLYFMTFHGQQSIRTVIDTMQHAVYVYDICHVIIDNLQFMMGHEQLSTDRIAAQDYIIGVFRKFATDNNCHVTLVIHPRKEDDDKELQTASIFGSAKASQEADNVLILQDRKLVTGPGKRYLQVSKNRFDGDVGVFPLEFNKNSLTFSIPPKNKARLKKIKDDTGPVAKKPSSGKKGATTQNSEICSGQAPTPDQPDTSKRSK
The experiment in a line: FAM fluorescence quenching titration.

What is called Kd is the equilibrium constant for the complex coming apart.

B1: BHQ1-dT22 (ssDNA)
DNA: TTTTTTTTTTTTTTTTTTTTTT
Take B1: binding was put at a Kd of 27.7 ± 3.8 nM.
